Measurements reported in patent US8361765B2, “Enzymic method for the enantioselective reduction of keto compounds” (IEP GmbH, priority 2001, dated 2013).

Assays:
Assay type in all cases: biochemical, Lactobacillus minor
[1] = tested on: L. minor alcohol dehydrogenase; assay: Enzyme stability under process conditions; conditions: for several days
Method: The stability of the enzyme under process conditions was studied by diluting L. minor alcohol dehydrogenase 1:100 with the solvent mixtures used in the two-phase system, followed by incubation at room temperature. 10 μl of the enzyme solution were then used in the standard assay mixture. Table 8 depicts the enzyme activities as a % of the starting value.

[2] = Temperature stability of L. minor alcohol dehydrogenase; conditions: for temperature up to which the enzyme is stable: 30 min incubation; for Activity in % (n = 4): measured at 30° C.
Method: The temperature stability for the range from 25° C. to 50° C. was determined similarly to the manner described in A.). For this purpose, in each case a 1:100 dilution of the purified enzyme was incubated at the particular temperature for 30 min and then measured at 30° C. using the above assay procedure. Here too, the starting value used was the measured value obtained immediately after diluting the enzyme in triethanolamine buffer 50 mM pH=7.0. This value was also set here as 100% value. L. minor alcohol dehydrogenase is stable up to a temperature of 40° C. Thereafter, the activity rapidly declines.

[3] = pH stability of cloned L. minor alcohol dehydrogenase
Method: The activity of the enzyme as a function of storage in buffers with different pH values in the range from pH 4 to 11 was studied. For this purpose, various buffers (50 mM) in the range from pH 4 to 11 were prepared and the enzyme purified in Example 2 was diluted 1:100 therein and incubated for 30 min. All buffers contained 1 mM MgCl2. 10 μl of this were then used in the normal enzyme assay (triethanolamine buffer 100 mM pH=7.0, 1 mM MgCl2, 10 mM ethyl 4-chloro-3-oxo-butanoate and 0.19 mM NADPH). The reaction was monitored at 30° C. and 340 nm for 1 min.
The starting value here is the measured value obtained immediately after diluting the enzyme in triethanolamine buffer 50 mM pH=7.0. Under predefined conditions, this value corresponded to a change in extinction of 0.20/min and was set as 100% value, with all subsequent measured values being related to this value.

[4] = Temperature optimum of the enzymic reaction
Method: The optimal assay temperature was determined by measuring the enzyme activity from 25° C. to 60° C. The assay mixture corresponded to the standard concentration of ethyl 4-chloro-3-oxo-butanoate and NADPH.

[5] = Enzyme obtainment and purification: activity of crude extract and purified enzyme; conditions: for volume activity: 25° C.
Method: The enzyme was obtained by culturing the strain with the highest enzymic activity in a fermenter (fed batch, 10 l) and inducing it at 40 OD500 with 1 mM IPTG. After 18 h, the cells were harvested, taking up 300 g of cells in 3 l of Kpi buffer (50 mM, pH=7, 1 mM MgCl2) and disrupted subsequently by means of a French press (Gaullin, Siemens).
To characterize the enzyme, a portion of the enzyme obtained was purified by means of […] chromatography on Q-Sepharose ff (fast flow). For this purpose, the column used was equilibrated with 50 mM Kpi buffer pH=7.0, 1 mM MgCl2. After application of the crude extract to the column and brief washing with equilibration buffer, the enzyme was eluted with an increasing linear salt gradient (0-1M NaCl, 1 ml/min) at a salt concentration of about 0.3 M NaCl. […] The enzyme purified in this way thus has a specific activity of approximately 35 to 40 U/mg of protein.
All enzymic activities were determined at 25° C. The enzyme activity was calculated as follows: • Calculation: 1 unit=conversion of 1 μmol of substrate per min • Lambert-Beer law • NADPH decrease was monitored at 340 nm (see enzymic assay mixture)=ΔE/min • N=enzyme dilution factor • V=enzyme volume in ml (0.01) • Vcuvette=cuvette volume=1 ml • d=cuvette light path=1 cm • eNADPH NADPH extinction coefficient=6.22 [mM^−1*cm^−1] • Activity=(ΔE/min*N*Vcuvette)/(eNADPH*V*d)
Protein determination was carried out according to Bradford (Bio-Rad Laboratories GmbH, Protein Assay).

[6] = pH optimum of the enzymic reaction; conditions: 30° C.
Method: As in the standard assay, the concentration of ethyl 4-chloro-3-oxo-butanoate and of NADPH was 10 mM and 0.19 mM, respectively. The reaction was determined at 30° C.

[7] = crude extract after fermentation and French press

B1: L. minor alcohol dehydrogenase: R-specific alcohol dehydrogenase from Lactobacillus minor, SEQ ID NO: 4, overexpressed in Escherichia coli RB 791 (protein, listed as Lactobacillus sp.)
chain: MRGSHHHHHHGSMTDRLKGKVAIVTGGTLGIGLAIADKFVEEGAKVVITGRHADVGEKAARSIGGTDVIRFVQHDASDETGWTKLFDTTEEAFGPVTTVVNNAGIAVSKSVEDTTTEEWRKLLSVNLDGVFFGTRLGIQRMKNKGLGASIINMSSIEGEVGDPALGAYNASKGAVRIMSKSAALDCALKDYDVRVNTVHPGYIKTPLVDDLEGAEEMMSQRTKTPMGHIGEPNDIAWICVYLASDESKFATGAEFVVDGGYTAQ
For B1, the “stability in the combination of solvents used in the two-phase system (in words)” value [1] was “stable and active”, the “temperature up to which the enzyme is stable” value [2] was ≤ 40 °C and the “temperature up to which the enzyme is stable” value ([2]; listed as Lactobacillus minor alcohol dehydrogenase) was “about 40 °C”. The “Activity in % (n = 4)” value ([2]; after 30 min at 25° C.) was 101 ± 3.2%, the “Activity in % (n = 4)” value ([2]; after 30 min at 30° C.) was 81.2 ± 5.8% and the “Activity in % (n = 4)” value ([2]; after 30 min at 35° C.) was 67.0 ± 1.6%. For the same molecule, the “Activity in % (n = 4)” value ([2]; after 30 min at 37° C.) was 20.2 ± 2.4%, the “Activity in % (n = 4)” value ([2]; after 30 min at 40° C.) was 33.4 ± 3.8% and the “Activity in % (n = 4)” value ([2]; after 30 min at 42° C.) was 0 ± 0%. The “Activity in % (n = 4)” value ([2]; after 30 min at 45° C.) was 0 ± 0%, the “Activity in % (n = 4)” value ([2]; after 30 min at 50° C.) was 0 ± 0% and the “Activity in % (n = 2)” value ([3]; after 30 min at pH 4, sodium acetate/acetic acid 50 mM, 100% = value directly after dilution) was 87.5 ± 6.5%. For the same molecule, the “Activity in % (n = 2)” value ([3]; after 30 min at pH 4.5, sodium acetate/acetic acid 50 mM) was 94.5 ± 3.0%, the “Activity in % (n = 2)” value ([3]; after 30 min at pH 5, MES/NaOH 50 mM) was 55 ± 5% and the “Activity in % (n = 2)” value ([3]; after 30 min at pH 5, sodium acetate/acetic acid 50 mM) was 94.5 ± 1.5%. For the same molecule, the “Activity in % (n = 2)” value ([3]; after 30 min at pH 5.5, KH2PO4/K2PO4 50 mM) was 96 ± 3%, the “Activity in % (n = 2)” value ([3]; after 30 min at pH 5.5, MES/NaOH 50 mM) was 77.1 ± 2.1% and the “Activity in % (n = 2)” value ([3]; after 30 min at pH 6, KH2PO4/K2PO4 50 mM) was 100 ± 0%. The “Activity in % (n = 2)” value ([3]; after 30 min at pH 6, triethanolamine/NaOH 50 mM) was 100 ± 0%, the “Activity in % (n = 2)” value ([3]; after 30 min at pH 6.5, KH2PO4/K2PO4 50 mM) was 97.5 ± 2.5% and the “Activity in % (n = 2)” value ([3]; after 30 min at pH 6.5, triethanolamine/NaOH 50 mM) was 100 ± 0%. For the same molecule, the “Activity in % (n = 2)” value ([3]; after 30 min at pH 7, KH2PO4/K2PO4 50 mM) was 100 ± 0%, the “Activity in % (n = 2)” value ([3]; after 30 min at pH 7, triethanolamine/NaOH 50 mM) was 97.9 ± 2.1% and the “Activity in % (n = 2)” value ([3]; after 30 min at pH 7.5, KH2PO4/K2PO4 50 mM) was 97.5 ± 7.5%. The “Activity in % (n = 2)” value ([3]; after 30 min at pH 7.5, tris/HCl 50 mM) was 94.6 ± 1.3%, the “Activity in % (n = 2)” value ([3]; after 30 min at pH 8, KH2PO4/K2PO4 50 mM) was 93.0 ± 3.0% and the “Activity in % (n = 2)” value ([3]; after 30 min at pH 8, tris/HCl 50 mM) was 89.2 ± 0%. For the same molecule, the “Activity in % (n = 2)” value ([3]; after 30 min at pH 8.5, KH2PO4/K2PO4 50 mM) was 102.5 ± 2.5%, the “Activity in % (n = 2)” value ([3]; after 30 min at pH 8.5, tris/HCl 50 mM) was 60 ± 4.2% and the “Activity in % (n = 2)” value ([3]; after 30 min at pH 9, glycine/NaOH 50 mM) was 76.5 ± 1.5%. The “Activity in % (n = 2)” value ([3]; after 30 min at pH 9, tris/HCl 50 mM) was 63.1 ± 4.8%, the “Activity in % (n = 2)” value ([3]; after 30 min at pH 9.5, glycine/NaOH 50 mM) was 52.5 ± 7.5% and the “Activity in % (n = 2)” value ([3]; after 30 min at pH 10, glycine/NaOH 50 mM) was 52.5 ± 7.5%. For the same molecule, the “Activity in % (n = 2)” value ([3]; after 30 min at pH 11, glycine/NaOH 50 mM) was 0.0 ± 0%, the “Activity in U/ml of undiluted enzyme” value ([4]; assay temperature 25° C.) was 540 U/ml and the “Activity in U/ml of undiluted enzyme” value ([4]; assay temperature 30° C.) was 1235 U/ml. For the same molecule, the “Activity in U/ml of undiluted enzyme” value ([4]; assay temperature 35° C.) was 1968 U/ml, the “Activity in U/ml of undiluted enzyme” value ([4]; assay temperature 40° C.) was 1621 U/ml and the “Activity in U/ml of undiluted enzyme” value ([4]; assay temperature 45° C.) was 2469 U/ml. For the same molecule, the “Activity in U/ml of undiluted enzyme” value ([4]; assay temperature 50° C.) was 2469 U/ml, the “Activity in U/ml of undiluted enzyme” value ([4]; assay temperature 55° C.) was 2855 U/ml and the “Activity in U/ml of undiluted enzyme” value ([4]; assay temperature 60° C.) was 0 U/ml. The “activity per wet mass” value [5, 7] was 20 000 U/g of wet mass, the volume activity [5, 7] was “approximately 2000 U/ml” and the “activity per wet mass on overexpression in Escherichia coli” value ([5]; overexpressed in Escherichia coli RB 791) was 20 000 units/g of wet mass. For the same molecule, the volume activity ([5]; purified enzyme, Q-Sepharose ff) was “about 800 U/ml”, the “Activity in U/ml of undiluted enzyme” value ([6]; assay at pH 4, sodium acetate/acetic acid) was 85 U/ml and the “Activity in U/ml of undiluted enzyme” value ([6]; assay at pH 4.5, sodium acetate/acetic acid) was 132 U/ml. For the same molecule, the “Activity in U/ml of undiluted enzyme” value ([6]; assay at pH 5, MES/NaOH) was 218 U/ml, the “Activity in U/ml of undiluted enzyme” value ([6]; assay at pH 5.5, MES/NaOH) was 240 U/ml and the “Activity in U/ml of undiluted enzyme” value ([6]; assay at pH 6, triethanolamine/NaOH) was 381 U/ml. The “Activity in U/ml of undiluted enzyme” value ([6]; assay at pH 6.5, triethanolamine/NaOH) was 349 U/ml, the “Activity in U/ml of undiluted enzyme” value ([6]; assay at pH 7, triethanolamine/NaOH) was 510 U/ml and the “Activity in U/ml of undiluted enzyme” value ([6]; assay at pH 7.5, tris/HCl) was 707 U/ml. The “Activity in U/ml of undiluted enzyme” value ([6]; assay at pH 8, tris/HCl) was 585 U/ml, the “Activity in U/ml of undiluted enzyme” value ([6]; assay at pH 8.5, tris/HCl) was 486 U/ml and the “Activity in U/ml of undiluted enzyme” value ([6]; assay at pH 9, tris/HCl) was 488 U/ml. The “Activity in U/ml of undiluted enzyme” value ([6]; assay at pH 10, glycine/NaOH) was 131 U/ml and the “Activity in U/ml of undiluted enzyme” value ([6]; assay at pH 11, glycine/NaOH) was 0 U/ml.
